Article PMC6414199, “Bim escapes displacement by BH3-mimetic anti-cancer drugs by double-bolt locking both Bcl-XL and Bcl-2” (eLife, 2019)
Numbering of substitutions follows the chain as printed. Names may count otherwise. Blank lines part the entries; values can stand above or below the binder they belong to.

What was measured:
mCerulean3-Bcl-XL = molecular target: T1, mCerulean3-Bcl-XL (human, UniProt Q07817-1 1-233); assay: FRET or BRET; FLIM-FRET in live MCF-7 cells: mCer3-Bcl-XL or mCer3-Bcl-2 stably expressed (donor), Venus-BH3 protein transiently expressed (acceptor); binding curves of FLIM-FRET efficiency against the Venus:mCer3 intensity ratio, 25 C; untreated, DMSO, 20 uM ABT-263 (18-24 h) or 1.25-20 uM A-1155463, A-1331852, ABT-263; R values interpolated at ratio 0.5 (Bcl-XL) or 0.25 (Bcl-2), ^VBad4E signal subtracted; conditions: partners not purified
T1 construct: Bcl-XL, human; GGS linker between mCerulean3 and Bcl-XL; also called ^CBcl-XL; ^cBcl-XL; source: MCF-7 and BMK-DKO, stably transfected clones, in live cells; not shown: mCerulean3, N-terminal, kept

mCerulean3-Bcl-2 = molecular target: T2, mCerulean3-Bcl-2 (human, UniProt P10415 1-239); assay: as above; conditions: partners not purified
T2 construct: Bcl-2, human; GGS linker between mCerulean3 and Bcl-2; also called ^CBcl-2; ^cBcl-2; source: MCF-7, stably transfected clone, in live cells; not shown: mCerulean3, N-terminal, kept

[1] = molecular target: T3, Bcl-XL single-cysteine mutant 152C, Alexa647-labelled (human, UniProt Q07817-1 1-233, Alexa 647-maleimide on the single cysteine at 152); assay: FRET or BRET; purified Alexa568-labelled BH3 protein (10 nM) and Alexa647-labelled Bcl-XL (40 nM) with liposomes, ABT-263 titrated in; 37 C, 1 h; relative displacements, not absolute affinity; conditions: both partners purified
[2] = molecular target: T3, Bcl-XL single-cysteine mutant 152C, …; assay: FRET or BRET; 4 nM Alexa568-labelled BimL or BimL-dCTS with increasing Alexa647-labelled Bcl-XL in samples containing mouse liver mitochondria; apparent Kd; conditions: both partners purified
[3] = molecular target: T3, Bcl-XL single-cysteine mutant 152C, …; assay: FRET or BRET; purified proteins with liposomes, protein binding (FRET) and liposome permeabilization measured at the same time, ABT-263 titrated; conditions: both partners purified

T2 sequence (P10415 whole entry): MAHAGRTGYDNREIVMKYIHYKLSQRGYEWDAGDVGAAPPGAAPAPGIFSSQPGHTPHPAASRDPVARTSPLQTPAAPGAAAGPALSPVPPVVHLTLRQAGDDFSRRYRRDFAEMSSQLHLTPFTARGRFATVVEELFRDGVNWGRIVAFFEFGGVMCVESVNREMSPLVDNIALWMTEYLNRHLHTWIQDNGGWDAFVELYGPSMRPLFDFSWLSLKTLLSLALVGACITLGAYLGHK
T1 sequence (Q07817 whole entry): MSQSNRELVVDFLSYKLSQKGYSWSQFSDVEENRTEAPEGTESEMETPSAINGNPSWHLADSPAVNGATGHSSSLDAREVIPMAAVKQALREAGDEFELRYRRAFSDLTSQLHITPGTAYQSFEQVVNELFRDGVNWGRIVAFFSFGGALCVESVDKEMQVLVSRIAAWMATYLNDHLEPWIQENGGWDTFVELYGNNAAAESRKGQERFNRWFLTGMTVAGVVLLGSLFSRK
T3 sequence (Q07817 other isoform, or with tags, fused parts or gaps mutant): as the sequence (Q07817 whole entry) above, with V152C counted along it

B1: Venus-BimEL (natural protein, mouse, UniProt O54918-1 1-196, looked up)
chain: MAKQPSDVSSECDREGGQLQPAERPPQLRPGAPTSLQTEPQGNPDGEGDRCPHGSPQGPLAPPASPGPFATRSPLFIFVRRSSLLSRSSSGYFSFDTDRSPAPMSCDKSTQTPSPPCQAFNHYLSAMASIRQSQEEPEDLRPEIRIAQELRRIGDEFNETYTRRVFANDYREAEDHPQMVILQLLRFIFRLVWRRH
notes: BimEL, mouse; GGS linker after Venus; also called ^VBimEL; ^vBimEL; source: MCF-7 and BMK-DKO, transiently transfected, in live cells; not shown: Venus, N-terminal, kept
R_(ABT-263), % of FRET signal left with 20 uM ABT-263 (mCerulean3-Bcl-XL): 86.3%
R_(ABT-263), % of FRET signal left with 20 uM ABT-263 (mCerulean3-Bcl-2): 83.1%

B3: Venus-BimEL-V192E (natural protein, mouse, UniProt O54918-1 1-196, looked up)
chain: B1 chain with V192E
notes: BimEL, mouse; also called ^VBimEL-V192E; ^vBimEL-V192E; source: MCF-7, transiently transfected, in live cells; not shown: Venus, N-terminal, kept
R_(ABT-263), % of FRET signal left with 20 uM ABT-263 (mCerulean3-Bcl-XL): 70.1%
R_(ABT-263), % of FRET signal left with 20 uM ABT-263 (mCerulean3-Bcl-2): 64.8%

B4: Venus-BimEL-I146Y (natural protein, mouse, UniProt O54918-1 1-196, looked up)
chain: B1 chain with I146Y
notes: BimEL, mouse; also called ^vBimEL-I146Y; source: MCF-7, transiently transfected, in live cells; not shown: Venus, N-terminal, kept
R_(ABT-263), % of FRET signal left with 20 uM ABT-263 (mCerulean3-Bcl-XL): 88.7%
R_(ABT-263), % of FRET signal left with 20 uM ABT-263 (mCerulean3-Bcl-2): 65.3%

B9: BimL-dCTS, Alexa568-labelled (domain or fragment)
chain: MAKQPSDVSSECDREGGQLQPAERPPQLRPGAPTSLQTEPCDRSPAPMSCDKSTQTPSPPCQAFNHYLSAMASIRQSQEEPEDLRPEIRIAQELRRIGDEFNETYTRRVFANDYREAEDHP
modifications: Alexa568 on a single cysteine
IC50 of ABT-263 for displacing the pair [1]: ~200 nM
Kd [2]: 35 ± 5 nM

The remaining lines, values ahead:

R_(ABT-263), % of FRET signal left with 20 uM ABT-263 (mCerulean3-Bcl-XL): 88.8%
R_(ABT-263), % of FRET signal left with 20 uM ABT-263 (mCerulean3-Bcl-2): 80.7%
B2: Venus-BimEL-CTS2A (natural protein, mouse, UniProt O54918-1 1-196, looked up)
chain: B1 chain with R186A, R190A
notes: BimEL, mouse; also called ^VBim-CTS2A; ^vBimEL-CTS2A; source: MCF-7, transiently transfected, in live cells; not shown: Venus, N-terminal, kept

R_(ABT-263), % of FRET signal left with 20 uM ABT-263 (mCerulean3-Bcl-XL): 63.9%
R_(ABT-263), % of FRET signal left with 20 uM ABT-263 (mCerulean3-Bcl-2): 73.3%
B5: Venus-BimEL-I181E (natural protein, mouse, UniProt O54918-1 1-196, looked up)
chain: B1 chain with I181E
notes: BimEL, mouse; also called ^vBimEL-I181E; source: MCF-7, transiently transfected, in live cells; not shown: Venus, N-terminal, kept

R_(ABT-263), % of FRET signal left with 20 uM ABT-263 (mCerulean3-Bcl-XL): 51%
R_(ABT-263), % of FRET signal left with 20 uM ABT-263 (mCerulean3-Bcl-2): 63%
B6: Venus-BimEL-I188E (natural protein, mouse, UniProt O54918-1 1-196, looked up)
chain: B1 chain with I188E
notes: BimEL, mouse; also called ^VBimEL-I188E; ^vBimEL-I188E; source: MCF-7, transiently transfected, in live cells; not shown: Venus, N-terminal, kept

R_(ABT-263), % of FRET signal left with 20 uM ABT-263 (mCerulean3-Bcl-XL): 40%
R_(ABT-263), % of FRET signal left with 20 uM ABT-263 (mCerulean3-Bcl-2): 36.9%
B7: Venus-BimEL-I146Y-L185E (natural protein, mouse, UniProt O54918-1 1-196, looked up)
chain: B1 chain with I146Y, L185E
notes: BimEL, mouse; also called ^vBimEL-I146Y-L185E; source: MCF-7, transiently transfected, in live cells; not shown: Venus, N-terminal, kept

R_(ABT-263), % of FRET signal left with 20 uM ABT-263 (mCerulean3-Bcl-XL): 41.9%
R_(ABT-263), % of FRET signal left with 20 uM ABT-263 (mCerulean3-Bcl-2): 51%
B8: Venus-BimEL-L185E (natural protein, mouse, UniProt O54918-1 1-196, looked up)
chain: B1 chain with L185E
notes: BimEL, mouse; also called ^VBimEL-L185E; ^vBimEL-L185E; source: MCF-7, transiently transfected, in live cells; not shown: Venus, N-terminal, kept

IC50 of ABT-263 for displacing the pair [1]: > 4000 nM
Kd [2]: 3 ± 1 nM
IC50 of ABT-263 for FRET of the pair [3]: > 700 nM
B10: BimL single-cysteine mutant 41C, Alexa568-labelled (natural protein)
chain: MAKQPSDVSSECDREGGQLQPAERPPQLRPGAPTSLQTEPCDRSPAPMSCDKSTQTPSPPCQAFNHYLSAMASIRQSQEEPEDLRPEIRIAQELRRIGDEFNETYTRRVFANDYREAEDHPQMVILQLLRFIFRLVWRRH
modifications: Alexa 568-maleimide on the single cysteine at 41
